According to publication PMC2756588:

T1: Sla1-3, P32790
T1 sequence (P32790 344-424, looked up): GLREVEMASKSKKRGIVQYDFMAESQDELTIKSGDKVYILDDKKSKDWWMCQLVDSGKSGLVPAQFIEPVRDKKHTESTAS

T2: Myo5, Q04439
T2 sequence (Q04439 1072-1160, looked up): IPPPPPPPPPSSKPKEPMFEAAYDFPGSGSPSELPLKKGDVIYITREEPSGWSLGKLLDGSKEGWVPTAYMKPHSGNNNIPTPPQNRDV

T3: Hse1, P38753
T3 sequence (P38753 208-285, looked up): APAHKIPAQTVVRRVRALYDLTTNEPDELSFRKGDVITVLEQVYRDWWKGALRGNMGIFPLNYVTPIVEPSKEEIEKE

T4: Bzz1-2, P38822
T4 sequence (P38822 568-633, looked up): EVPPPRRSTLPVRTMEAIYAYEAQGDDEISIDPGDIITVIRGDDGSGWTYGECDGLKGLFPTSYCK

T5: Nbp2, Q12163
T5 sequence (Q12163 103-180, looked up): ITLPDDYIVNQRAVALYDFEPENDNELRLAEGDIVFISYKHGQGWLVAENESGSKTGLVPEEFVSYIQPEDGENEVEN

T6: Hof1, Q05080
T6 sequence (Q05080 590-669, looked up): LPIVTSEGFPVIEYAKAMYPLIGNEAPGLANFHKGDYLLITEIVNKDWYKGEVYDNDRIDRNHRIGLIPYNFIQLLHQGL

T7: Pex13, P80667
T7 sequence (P80667 295-386, looked up): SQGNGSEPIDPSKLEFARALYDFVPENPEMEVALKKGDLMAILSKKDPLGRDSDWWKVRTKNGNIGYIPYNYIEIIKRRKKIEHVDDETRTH

T8: Lsb1, P53281
T8 sequence (P53281 45-122, looked up): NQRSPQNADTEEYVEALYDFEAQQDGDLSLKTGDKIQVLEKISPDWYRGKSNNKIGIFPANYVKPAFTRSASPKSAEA

T9: Pin3, Q06449
T9 sequence (Q06449 53-122, looked up): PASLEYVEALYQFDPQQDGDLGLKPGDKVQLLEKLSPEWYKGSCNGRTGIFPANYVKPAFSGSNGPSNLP

T10: Sla1-2, P32790
T10 sequence (P32790 60-140, looked up): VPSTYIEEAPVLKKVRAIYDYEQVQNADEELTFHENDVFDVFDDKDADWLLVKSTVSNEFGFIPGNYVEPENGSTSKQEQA

T11: Bud14, P27637
T11 sequence (P27637 247-328, looked up): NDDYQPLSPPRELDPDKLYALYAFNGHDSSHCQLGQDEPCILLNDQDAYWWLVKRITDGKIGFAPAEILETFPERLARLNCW

T12: Lsb3, P43603
T12 sequence (P43603 385-451, looked up): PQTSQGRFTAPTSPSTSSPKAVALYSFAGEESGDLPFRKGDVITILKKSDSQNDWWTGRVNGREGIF

T13: Cdc25, P04821
T13 sequence (P04821 50-136, looked up): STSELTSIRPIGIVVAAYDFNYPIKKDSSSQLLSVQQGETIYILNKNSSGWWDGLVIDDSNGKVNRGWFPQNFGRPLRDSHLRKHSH

T14: Boi2, P39969
T14 sequence (P39969 32-116, looked up): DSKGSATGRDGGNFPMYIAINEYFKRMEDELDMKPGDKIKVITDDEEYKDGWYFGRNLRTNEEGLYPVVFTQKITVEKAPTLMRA

T15: Bbc1, P47068
T15 sequence (P47068 1-78, looked up): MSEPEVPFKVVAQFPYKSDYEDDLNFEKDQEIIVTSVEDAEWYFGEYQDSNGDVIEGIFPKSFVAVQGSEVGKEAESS

T16: Fus1, P11710
T16 sequence (P11710 432-512, looked up): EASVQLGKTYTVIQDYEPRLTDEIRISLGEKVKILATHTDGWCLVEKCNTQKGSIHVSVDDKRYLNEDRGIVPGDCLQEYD

T17: Abp1, P15891
T17 sequence (P15891 535-592, looked up): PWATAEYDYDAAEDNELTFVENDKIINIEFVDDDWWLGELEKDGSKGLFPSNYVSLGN

T18: Cyk3, Q07533
T18 sequence (Q07533 1-83, looked up): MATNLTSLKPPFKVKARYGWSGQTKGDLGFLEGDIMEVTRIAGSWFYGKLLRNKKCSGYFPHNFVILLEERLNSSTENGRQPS

T19: Bzz1-1, P38822
T19 sequence (P38822 478-572, looked up): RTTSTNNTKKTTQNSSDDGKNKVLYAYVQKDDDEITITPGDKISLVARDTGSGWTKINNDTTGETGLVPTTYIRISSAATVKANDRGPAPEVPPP

T20: Boi1, P38041
T20 sequence (P38041 1-86, looked up): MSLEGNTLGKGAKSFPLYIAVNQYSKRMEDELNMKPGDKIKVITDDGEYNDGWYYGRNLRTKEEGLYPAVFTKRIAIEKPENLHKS

T21: Lsb4, P32793
T21 sequence (P32793 402-468, looked up): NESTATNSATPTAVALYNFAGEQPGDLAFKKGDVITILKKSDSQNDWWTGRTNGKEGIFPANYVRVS


Assays:
Experiment in all cases: SPOT array
Myo3, P36006 = details: median of control spots 468
Sla1-3, P32790 = molecular target: T1, Sla1-3, P32790; details: median of control spots 5475
Myo5, Q04439 = molecular target: T2, Myo5, Q04439; details: median of control spots 471
Hse1, P38753 = molecular target: T3, Hse1, P38753; details: median of control spots 1727
Bzz1-2, P38822 = molecular target: T4, Bzz1-2, P38822; details: median of control spots 4538
Nbp2, Q12163 = molecular target: T5, Nbp2, Q12163; details: median of control spots 357
Hof1, Q05080 = molecular target: T6, Hof1, Q05080; details: median of control spots 4086
Pex13, P80667 = molecular target: T7, Pex13, P80667; details: median of control spots 1341
Lsb1, P53281 = molecular target: T8, Lsb1, P53281; details: median of control spots 388
GST = details: median of control spots 978
Bem1-2, P29366 = details: median of control spots 4347
Rvs167, P39743 = details: median of control spots 2707
Pin3, Q06449 = molecular target: T9, Pin3, Q06449; details: median of control spots 2171
Sla1-2, P32790 = molecular target: T10, Sla1-2, P32790; details: median of control spots 712
Bud14, P27637 = molecular target: T11, Bud14, P27637; details: median of control spots 956
Lsb3, P43603 = molecular target: T12, Lsb3, P43603; details: median of control spots 406
Sho1, P40073 = details: median of control spots 1148
Cdc25, P04821 = molecular target: T13, Cdc25, P04821; details: median of control spots 969
Bem1-1, P29366 = details: median of control spots 4282
Boi2, P39969 = molecular target: T14, Boi2, P39969; details: median of control spots 1161
Bbc1, P47068 = molecular target: T15, Bbc1, P47068; details: median of control spots 796
Fus1, P11710 = molecular target: T16, Fus1, P11710; details: median of control spots 1200
Abp1, P15891 = molecular target: T17, Abp1, P15891; details: median of control spots 935
Cyk3, Q07533 = molecular target: T18, Cyk3, Q07533; details: median of control spots 1451
Bzz1-1, P38822 = molecular target: T19, Bzz1-1, P38822; details: median of control spots 4446
Boi1, P38041 = molecular target: T20, Boi1, P38041; details: median of control spots 1162
Lsb4, P32793 = molecular target: T21, Lsb4, P32793; details: median of control spots 397

Sequence of Sho1, P40073 (P40073 287-367): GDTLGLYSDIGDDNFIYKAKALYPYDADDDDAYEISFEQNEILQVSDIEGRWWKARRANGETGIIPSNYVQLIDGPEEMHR
Sequence of Bem1-2, P29366 (P29366 139-227): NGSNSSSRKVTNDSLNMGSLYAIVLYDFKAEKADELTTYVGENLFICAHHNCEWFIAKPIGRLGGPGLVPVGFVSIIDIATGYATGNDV
Sequence of Rvs167, P39743 (P39743 419-482): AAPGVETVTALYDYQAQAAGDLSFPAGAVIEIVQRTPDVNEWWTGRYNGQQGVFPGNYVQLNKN
Sequence of Bem1-1, P29366 (P29366 55-141): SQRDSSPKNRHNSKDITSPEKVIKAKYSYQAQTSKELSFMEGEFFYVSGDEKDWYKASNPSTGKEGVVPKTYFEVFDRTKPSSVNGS

Binder | SPOT intensity (Myo3, P36006) | SPOT intensity (Sla1-3, P32790) | SPOT intensity (Myo5, Q04439) | SPOT intensity (Hse1, P38753) | SPOT intensity (Bzz1-2, P38822) | SPOT intensity (Nbp2, Q12163) | SPOT intensity (Hof1, Q05080) | SPOT intensity (Pex13, P80667) | SPOT intensity (Lsb1, P53281) | SPOT intensity (GST) | SPOT intensity (Bem1-2, P29366) | SPOT intensity (Rvs167, P39743) | SPOT intensity (Pin3, Q06449) | SPOT intensity (Sla1-2, P32790) | SPOT intensity (Bud14, P27637) | SPOT intensity (Lsb3, P43603) | SPOT intensity (Sho1, P40073) | SPOT intensity (Cdc25, P04821) | SPOT intensity (Bem1-1, P29366) | SPOT intensity (Boi2, P39969) | also measured
RSVKRPRRAPRPVVS | 11 | 25 | 1 | 8 | 3 | 67 | 6 | 0 | 94 | 4 | 15 | 9 | 2 | 6 | 12 | 52 | 60 | 20 | 3 | 6 | SPOT intensity (Bbc1, P47068): 377; SPOT intensity (Fus1, P11710): 19; SPOT intensity (Abp1, P15891): 204; SPOT intensity (Cyk3, Q07533): 12; SPOT intensity (Bzz1-1, P38822): 0; SPOT intensity (Boi1, P38041): 1; SPOT intensity (Lsb4, P32793): 34
SKSRLLIELPEGFFT | 0 | 0 | 0 | 0 | 0 | 0 | 0 | 14 | 0 | 0 | 0 | 0 | 4 | 0 | 1 | 0 | 10 | 66 | 0 | 1 | SPOT intensity (Bbc1, P47068): 0; SPOT intensity (Fus1, P11710): 0; SPOT intensity (Abp1, P15891): 0; SPOT intensity (Cyk3, Q07533): 0; SPOT intensity (Bzz1-1, P38822): 1; SPOT intensity (Boi1, P38041): 1; SPOT intensity (Lsb4, P32793): 0
RMVRRRPLRVQFSAR | 50 | 128 | 10 | 41 | 16 | 104 | 10 | 17 | 60 | 9 | 27 | 3 | 70 | 37 | 36 | 35 | 259 | 94 | 6 | 12 | SPOT intensity (Bbc1, P47068): 235; SPOT intensity (Fus1, P11710): 92; SPOT intensity (Abp1, P15891): 270; SPOT intensity (Cyk3, Q07533): 12; SPOT intensity (Bzz1-1, P38822): 4; SPOT intensity (Boi1, P38041): 14; SPOT intensity (Lsb4, P32793): 25

More lines, main results first:

SPOT intensity (Myo3, P36006) | SPOT intensity (Sla1-3, P32790) | SPOT intensity (Myo5, Q04439) | SPOT intensity (Hse1, P38753) | SPOT intensity (Bzz1-2, P38822) | SPOT intensity (Nbp2, Q12163) | SPOT intensity (Hof1, Q05080) | SPOT intensity (Pex13, P80667) | SPOT intensity (Lsb1, P53281) | SPOT intensity (GST) | SPOT intensity (Bem1-2, P29366) | SPOT intensity (Rvs167, P39743) | SPOT intensity (Pin3, Q06449) | SPOT intensity (Sla1-2, P32790) | SPOT intensity (Bud14, P27637) | SPOT intensity (Lsb3, P43603) | SPOT intensity (Sho1, P40073) | SPOT intensity (Cdc25, P04821) | SPOT intensity (Bem1-1, P29366) | SPOT intensity (Boi2, P39969) | Binder | also measured
3 | 459 | 0 | 9 | 60 | 46 | 18 | 129 | 576 | 0 | 29 | 3400 | 12 | 0 | 16 | 183 | 31 | 35 | 1 | 1 | SNRRPVPRRPSQPLN | SPOT intensity (Bbc1, P47068): 248; SPOT intensity (Fus1, P11710): 0; SPOT intensity (Abp1, P15891): 139; SPOT intensity (Cyk3, Q07533): 0; SPOT intensity (Bzz1-1, P38822): 0; SPOT intensity (Boi1, P38041): 2; SPOT intensity (Lsb4, P32793): 333
6 | 35 | 0 | 17 | 0 | 11 | 5 | 4 | 215 | 5 | 15 | 0 | 9 | 0 | 24 | 2 | 39 | 24 | 2 | 0 | RRTRLRPPTPLSQLL | SPOT intensity (Bbc1, P47068): 348; SPOT intensity (Fus1, P11710): 17; SPOT intensity (Abp1, P15891): 103; SPOT intensity (Cyk3, Q07533): 7; SPOT intensity (Bzz1-1, P38822): 2; SPOT intensity (Boi1, P38041): 0; SPOT intensity (Lsb4, P32793): 1
0 | 97 | 0 | 32 | 7 | 14 | 9 | 13 | 53 | 0 | 4 | 0 | 15 | 0 | 4 | 0 | 41 | 142 | 1 | 0 | RFKRHRLEFPFNESE | SPOT intensity (Bbc1, P47068): 36; SPOT intensity (Fus1, P11710): 34; SPOT intensity (Abp1, P15891): 36; SPOT intensity (Cyk3, Q07533): 0; SPOT intensity (Bzz1-1, P38822): 0; SPOT intensity (Boi1, P38041): 0; SPOT intensity (Lsb4, P32793): 0
